From IntAct's records for PubMed 24338975 come the findings set out here.

The target of test [1] is psd10_human PSMD10 (UniProt O75832).
Test [2] shares this target. This is another data set of the same source.

Chain of psd10_human PSMD10 (O75832 whole entry): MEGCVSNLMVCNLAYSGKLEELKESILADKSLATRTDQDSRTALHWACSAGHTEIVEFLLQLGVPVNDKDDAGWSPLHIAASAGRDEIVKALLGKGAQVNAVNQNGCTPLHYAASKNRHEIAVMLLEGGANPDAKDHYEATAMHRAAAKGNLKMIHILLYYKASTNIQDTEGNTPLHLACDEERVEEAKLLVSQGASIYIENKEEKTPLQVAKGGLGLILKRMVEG
Chain of Cytoplasmic protein NCK2 (Homo sapiens), O43639 E167A;E168A;D170A (O43639 whole entry E167A/E168A/D170A): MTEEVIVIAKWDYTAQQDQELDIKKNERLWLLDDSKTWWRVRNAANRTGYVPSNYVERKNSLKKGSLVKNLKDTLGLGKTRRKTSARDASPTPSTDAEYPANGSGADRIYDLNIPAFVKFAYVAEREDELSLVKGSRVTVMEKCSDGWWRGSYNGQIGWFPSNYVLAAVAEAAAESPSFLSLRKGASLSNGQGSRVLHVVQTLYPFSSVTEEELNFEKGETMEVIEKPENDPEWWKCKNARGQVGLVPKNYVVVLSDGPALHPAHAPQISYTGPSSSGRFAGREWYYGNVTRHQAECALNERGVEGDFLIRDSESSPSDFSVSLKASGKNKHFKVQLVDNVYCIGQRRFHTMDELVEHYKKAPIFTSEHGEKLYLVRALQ

For the substance “Cytoplasmic protein NCK2 (Homo sapiens), O43639 E167A;E168A;D170A”, the “effect of a mutation on the interaction” value with psd10_human PSMD10 [1] is recorded as “disrupting interaction strength”.
With “Chloride intracellular channel protein 1 (Homo sapiens) (from UniProt O00299) E150A;E151A;D153A”, the “effect of a mutation on the interaction” value with psd10_human PSMD10 [2] is listed as “disrupting interaction strength”.
Same read-out and setting: the same measure for “Chloride intracellular channel protein 1 (Homo sapiens) (from UniProt O00299) V152E”: “with no effect”.
